Measurements taken from PMC11365994 (Communications Biology, 2024).

T1: falcilysin E132Q single mutant (residues 59-1193) (Plasmodium falciparum, UniProt Q76NL8 59-1193, E132Q)
T1 sequence (looked up): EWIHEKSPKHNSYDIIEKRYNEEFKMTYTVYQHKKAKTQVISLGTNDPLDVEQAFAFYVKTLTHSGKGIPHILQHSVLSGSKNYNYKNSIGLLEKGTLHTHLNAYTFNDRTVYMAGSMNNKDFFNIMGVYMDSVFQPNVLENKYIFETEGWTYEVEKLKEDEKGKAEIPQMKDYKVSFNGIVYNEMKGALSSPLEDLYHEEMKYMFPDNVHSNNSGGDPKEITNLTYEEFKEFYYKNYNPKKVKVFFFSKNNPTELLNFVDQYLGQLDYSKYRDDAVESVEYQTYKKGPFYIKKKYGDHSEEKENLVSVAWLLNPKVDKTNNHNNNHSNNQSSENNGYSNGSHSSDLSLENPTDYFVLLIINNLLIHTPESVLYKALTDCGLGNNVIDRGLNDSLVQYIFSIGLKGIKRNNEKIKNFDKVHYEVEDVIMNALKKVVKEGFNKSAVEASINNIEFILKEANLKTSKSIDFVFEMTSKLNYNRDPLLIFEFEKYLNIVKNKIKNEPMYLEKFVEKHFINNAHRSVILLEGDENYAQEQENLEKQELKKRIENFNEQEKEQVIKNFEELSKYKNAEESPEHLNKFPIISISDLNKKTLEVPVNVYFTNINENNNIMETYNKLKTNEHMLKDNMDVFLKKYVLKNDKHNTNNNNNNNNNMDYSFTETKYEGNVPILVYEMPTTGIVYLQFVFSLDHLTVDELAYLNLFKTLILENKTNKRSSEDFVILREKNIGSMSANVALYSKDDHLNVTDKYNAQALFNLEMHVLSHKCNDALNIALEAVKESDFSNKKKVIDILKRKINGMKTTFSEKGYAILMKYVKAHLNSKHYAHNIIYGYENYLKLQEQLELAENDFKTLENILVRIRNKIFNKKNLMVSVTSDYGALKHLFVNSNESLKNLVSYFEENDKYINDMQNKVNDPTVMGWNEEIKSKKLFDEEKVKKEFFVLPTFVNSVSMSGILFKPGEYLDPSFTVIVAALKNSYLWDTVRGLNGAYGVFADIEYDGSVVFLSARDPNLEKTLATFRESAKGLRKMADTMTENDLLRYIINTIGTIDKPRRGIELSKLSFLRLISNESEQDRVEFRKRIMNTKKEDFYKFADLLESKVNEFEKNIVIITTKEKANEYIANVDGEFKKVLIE


Target: T1, falcilysin E132Q single mutant …
Assay: ITC

Binder | Kd [nM]
VVYPWTQRFFESFGD [hemoglobin β chain peptide (residues V33 to D47)] | 499
LSFPTTKTYFPHFD [hemoglobin α chain peptide (residues L34 to D47)] | 933
